Series [1] concerns the target T1, P. vivax CelTOS (cell-traversal protein for ookinetes and sporozoites), Sal-1, residues L36-D196 (Plasmodium vivax Sal-1).
T1 construct: PvCelTOS, P. vivax Sal-1, PVX_123510, residues L36-D196; also called PvCelTOS; source: E. coli BL21(DE3), pET28, purified (nickel resin, Superdex 200 increase)
T1 chain: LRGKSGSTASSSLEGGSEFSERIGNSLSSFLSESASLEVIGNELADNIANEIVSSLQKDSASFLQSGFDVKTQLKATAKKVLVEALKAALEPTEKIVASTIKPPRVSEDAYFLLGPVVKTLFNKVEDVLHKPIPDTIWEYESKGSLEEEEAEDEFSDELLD
Description: BLI; mAb immobilised on anti-mouse IgG Fc capture (AMC) biosensors, 25 °C; CelTOS serially diluted in HBS-EP+ buffer as analyte; OctetRed96e; global fit, 1:1 model; each biological replicate the average of three repeats. Conditions: both partners purified.

In series [2] the target is T2, P. falciparum CelTOS (cell-traversal protein for ookinetes and sporozoites), 3D7, residues F25-D182 (Plasmodium falciparum 3D7).
T2 construct: PfCelTOS, P. falciparum 3D7, PF3D7_1216600, residues F25-D182; also called PfCelTOS; source: E. coli BL21(DE3), pET28, purified (nickel resin, Superdex 200 increase)
T2 chain: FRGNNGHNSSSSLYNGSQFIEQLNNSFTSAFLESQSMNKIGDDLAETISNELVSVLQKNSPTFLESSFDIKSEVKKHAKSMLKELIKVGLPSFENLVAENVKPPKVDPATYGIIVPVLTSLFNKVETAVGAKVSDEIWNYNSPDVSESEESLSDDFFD
The series is described as above. To be noted: both partners purified.

In series [3] the target is T3, P. vivax CelTOS (Sal-1, PVX_123510, residue L36-D196) (P. vivax, UniProt A5JZX5).
T3 construct: Cell-traversal protein for ookinetes and sporozoites (CelTOS), P. vivax Sal-1, PVX_123510, residues L36-D196; also called PvCelTOS; cell-traversal protein for ookinetes and sporozoites; source: E. coli BL21(DE3), pET28, purified (Ni resin, Superdex 200 increase)
Description: BLI; mAb immobilised on anti-mouse IgG Fc capture (AMC) biosensors at 25 °C; CelTOS serially diluted in HBS-EP+ buffer; global fit, 1:1 model. To be noted: both partners purified.

Series [4] concerns the target T4, P. falciparum CelTOS (3D7, PF3D7_1216600, residue F25-D182) (P. falciparum, UniProt Q8I5P1).
T4 construct: Cell-traversal protein for ookinetes and sporozoites (CelTOS), P. falciparum 3D7, PF3D7_1216600, residues F25-D182; Only S60-S116 are ordered in PDB 8UKH; also called PfCelTOS; cell-traversal protein for ookinetes and sporozoites; source: E. coli BL21(DE3), pET28, purified (Ni resin, Superdex 200 increase)
The series is described as above. Conditions: both partners purified.

Series [5] concerns the molecule itself. Description: crystal structure; PfCelTOS with 4h12 Fab at a ratio of 1.5:1, complex purified by SEC; crystals at 18 °C, 0.2 M lithium acetate, 21% PEG 3350; 3.5 Å. In general terms: SEC sorts molecules by how far they enter the pores of the column.
Series [6] deals with the molecule itself. Description: crystal structure; PvCelTOS with 7g7 Fab at a 1:1 ratio, complex purified by SEC; crystals at 17 °C, 0.1 M sodium acetate pH 4.5, 15% PEG 4000; 3.2 Å.

“And” between values parts separate entries of the source, which are not always exact repeats. Equal values may be shown once.

B1: anti-CelTOS monoclonal antibody 4h12 (mouse IgG1) (antibody, V domains shown)
VH: QVQLQQSGPELVKPGASVKISCKASGYALSSSWLNWVKQRPGQGLEWIGRIFPGDGDTNYNGKFKGKATLTADKSSSTAYLQLSSLTSVDSAVYFCARGGTVVFDYWGQGTTLTVSS
VL: DIVMTQSHKFMSTSVGDRVNITCKASQDVGIAVAWYQQRPGQSPKLLIYWASKRHTGVHDRFTGTGSGTDFTLTISTVQSEDLADYFCQQYSNSLTFGAGTTLELS
notes: 4h12 heavy chain variable region; mouse IgG1 heavy chain constant region (IgG1 subclass by isotyping ELISA); 4h12 light chain variable region; light chain constant region; the light chain of the Fab is in PDB 8UKH; IgG1; raised in mice immunised with PfCelTOS; also called 4h12 mAb; 4h12 IgG; source: hybridoma culture, purified (Protein A resin)
The term Kd denotes a measure of binding affinity in units of concentration. A lower Kd goes with a tighter complex. In general, koff refers to the rate constant with which the complex falls apart. A word on the kon: it is the second-order rate constant of association. A lower kon goes with slower complex formation. B1: in series [1], the Kd was 41600 nM and 57500 nM and 56300 nM; the off-rate (koff) was 0.0411 s⁻¹ and 0.0511 s⁻¹ and 0.0549 s⁻¹ and 0.0491 s⁻¹; the association rate constant (kon) is 1100 M⁻¹ s⁻¹ and 900 M⁻¹ s⁻¹ and 1000 M⁻¹ s⁻¹. For the same molecule, in series [2], the dissociation constant Kd is 65.9 nM and 68 nM and 62.3 nM; the off-rate (koff) is 0.00569 s⁻¹ and 0.00609 s⁻¹ and 0.00521 s⁻¹ and 0.00566 s⁻¹; the kon was 86300 M⁻¹ s⁻¹ and 89700 M⁻¹ s⁻¹ and 84700 M⁻¹ s⁻¹ and 86900 M⁻¹ s⁻¹.

B2: monoclonal antibody 4h12 (IgG) (antibody, V domains shown)
VH: QVQLQQSGPELVKPGASVKISCKASGYALSSSWLNWVKQRPGQGLEWIGRIFPGDGDTNYNGKFKGKATLTADKSSSTAYLQLSSLTSVDSAVYFCARGGTVVFDYWGQGTTLTVSS
VL: DIVMTQSHKFMSTSVGDRVNITCKASQDVGIAVAWYQQRPGQSPKLLIYWASKRHTGVHDRFTGTGSGTDFTLTISTVQSEDLADYFCQQYSNSLTFGAGTTLELS
notes: the Fab part of the heavy chain is in PDB 8UKH; mouse IgG1; the light chain is in PDB 8UKH; IgG1; raised by immunising mice with PfCelTOS; also called 4h12 mAb; source: mouse hybridoma supernatant, purified (protein A); copies: 2 + 2
For the molecule B2, the values for the Kd in series [3] and in series [4] were 51800 nM and 65.4 nM, respectively.

B3: P. falciparum CelTOS (3D7, PF3D7_1216600, residue F25-D182) (natural protein, UniProt Q8I5P1 25-182, looked up)
chain: FRGNNGHNSSSSLYNGSQFIEQLNNSFTSAFLESQSMNKIGDDLAETISNELVSVLQKNSPTFLESSFDIKSEVKKHAKSMLKELIKVGLPSFENLVAENVKPPKVDPATYGIIVPVLTSLFNKVETAVGAKVSDEIWNYNSPDVSESEESLSDDFFD
notes: Cell-traversal protein for ookinetes and sporozoites (CelTOS), P. falciparum 3D7, PF3D7_1216600, residues F25-D182; Only S60-S116 are ordered in PDB 8UKH; also called PfCelTOS; cell-traversal protein for ookinetes and sporozoites; source: E. coli BL21(DE3), pET28, purified (Ni resin, Superdex 200 increase)
By stoichiometry N is commonly meant a count of units in the complex or per binding partner. On to B3, for which the “stoichiometry N” value in series [5] was 2.

B4: P. vivax CelTOS (Sal-1, PVX_123510, residue L36-D196) (natural protein, UniProt A5JZX5 36-196, looked up)
chain: LRGKSGSTASSSLEGGSEFSERIGNSLSSFLSESASLEVIGNELADNIANEIVSSLQKDSASFLQSGFDVKTQLKATAKKVLVEALKAALEPTEKIVASTIKPPRVSEDAYFLLGPVVKTLFNKVEDVLHKPIPDTIWEYESKGSLEEEEAEDEFSDELLD
notes: Cell-traversal protein for ookinetes and sporozoites (CelTOS), P. vivax Sal-1, PVX_123510, residues L36-D196; also called PvCelTOS; cell-traversal protein for ookinetes and sporozoites; source: E. coli BL21(DE3), pET28, purified (Ni resin, Superdex 200 increase)
As to B4, in series [6], the “stoichiometry N” value amounted to 2.

B5: anti-CelTOS monoclonal antibody 7g7 (mouse IgG1) (antibody, V domains shown)
VH: EIQLQQSGPELVKPGASVKVSCKASGYSFTDYNMYWVKQSHGKSLEWIGYIDPYNGGTRYNQKFRDKATLTVDKSSSTAFMHLNSLTSEDSAVYYCARGYYYGNPLHFDVWGAGTTVTVSS
VL: QIVLTQSPAIMSASPGEKVTMTCSASSSVSYIHWYQQKSGTSPKRWIYDTSKLASGVPARFSGSGSGTSYSLTISSMEAEDAATYYCQQWISYPATFGAGTKLELK
notes: 7g7 heavy chain variable region; mouse IgG1 heavy chain constant region (IgG1 subclass by isotyping ELISA); 7g7 light chain variable region; light chain constant region; the light chain of the Fab is in PDB 8ULF; IgG1; raised in mice immunised with PvCelTOS; also called 7g7 mAb; 7g7 IgG; source: hybridoma culture, purified (Protein A resin)
Regarding B5, in series [1], the Kd was 58.5 nM and 39.5 nM and 54.2 nM; the koff is 0.00309 s⁻¹ and 0.00368 s⁻¹ and 0.00227 s⁻¹ and 0.00332 s⁻¹; the kon is 60200 M⁻¹ s⁻¹ and 62300 M⁻¹ s⁻¹ and 57000 M⁻¹ s⁻¹ and 61300 M⁻¹ s⁻¹. Further, in series [2], the Kd is 470 nM and 480 nM and 500 nM; the dissociation rate constant (koff) is 0.00279 s⁻¹ and 0.00293 s⁻¹ and 0.00281 s⁻¹ and 0.00284 s⁻¹; the association rate constant (kon) was 5900 M⁻¹ s⁻¹ and 6000 M⁻¹ s⁻¹ and 5600 M⁻¹ s⁻¹ and 5800 M⁻¹ s⁻¹.

B6: monoclonal antibody 7g7 (IgG) (antibody, V domains shown)
VH: EIQLQQSGPELVKPGASVKVSCKASGYSFTDYNMYWVKQSHGKSLEWIGYIDPYNGGTRYNQKFRDKATLTVDKSSSTAFMHLNSLTSEDSAVYYCARGYYYGNPLHFDVWGAGTTVTVSS
VL: QIVLTQSPAIMSASPGEKVTMTCSASSSVSYIHWYQQKSGTSPKRWIYDTSKLASGVPARFSGSGSGTSYSLTISSMEAEDAATYYCQQWISYPATFGAGTKLELK
notes: the Fab part of the heavy chain is in PDB 8ULF; mouse IgG1; the light chain is in PDB 8ULF; IgG1; raised by immunising mice with PvCelTOS; also called 7g7 mAb; source: mouse hybridoma supernatant, purified (protein A); copies: 2 + 2
For the molecule B6, the dissociation constant Kd in series [3] is 50.7 nM; in series [4], 480 nM.
